Tests used:
[1] = target: 2-oxoglutarate:ferredoxin oxidoreductase from Magnetococcus marinus MC-1, αβ heterodimer (catalytic unit) (Magnetococcus marinus MC-1)
[2] = substrate: CC(C)(COP(=O)(O)OP(=O)(O)OC[C@H]1O[C@@H](n2cnc3c(N)ncnc32)[C@H](O)[C@@H]1OP(=O)(O)O)[C@@H](O)C(=O)NCCC(=O)NCCS; experiment: steady-state 2-oxoglutarate oxidation assay; format: biochemical, Magnetococcus marinus; details: pH 8.5, 2-oxoglutarate oxidation direction
[3] = substrate: O=C(O)CCC(=O)C(=O)O; experiment: steady-state 2-oxoglutarate oxidation assay; format: biochemical, Magnetococcus marinus; details: pH 8.5, apparent KM

Molecule | KM of WT MmOGOR for MmFd1, CO2 reduction, pH 7.0 [1] [μM] | Km [2] [µM] | kcat [2] [s⁻¹] | kcat/Km [2] [M⁻¹ s⁻¹] | Km [3] [µM] | kcat [3] [s⁻¹] | kcat/Km [3] [M⁻¹ s⁻¹]
Magnetococcus marinus MC-1 ferredoxin 1 (natural protein) | 1.3 |  |  |  |  |  | 
MmOGOR (Magnetococcus marinus MC-1) (protein) chain 1: MEKKDLIIRVAGEGGEGIISSGDFIAAACARAGLEVYTFKTFPAEIKGGYAMYQVRASSEKLYCQGDTFDVFCAFNGEAYEQNKDKIKPGTAFVYDYPGGDFEPDEIPEGVFAYPIPMSQTAKEMKSYRSKNMVALGALSELFNISENTLKEVLSDKFGKKGEEVLAFNLEAFDKGKALAKALTKADPFRVADPQEPKDVIIMAGNDAVGLGGILGGLEFFSAYPITPATEVAKYVATHLPKCGGDLVQAEDEIASIAQVLGASYAGKKSMTATSGPGLALMSEMLGMAHMSETPCLVVDVQRGGPSTGLPTKHEQSDLFLAIHGGHGDSPRIVLSVEDVKDCISMTVDGLNLAEKYQAPVIVLSDGSLAFSTQTIPRPKPEDFTIINRKTWDGQGTYKRYELTEDNISPMAAPGTPNAKHIATGLEHGETGAPNYSPANHELMHRKRFNKQNSVLDFYKNMEVEGVEGEADVGIITWGSTIGVVREAMQRLTAEGLKVKAMYPKLLWPMPVADYDAFGATCKKVIVPEVNFQGQLSHFIRAETSIKPIPYTICGGLPFTPEMIVNRVKEEIQ chain 2: MTVEAFHKMENMKPKDYKSEVPTTWCPGCGHFGILNGVYRAMAELGIDSTKFAAISGIGCSSRMPYFVDSYKMHTLHGRAGAVATGTQVARPDLCVVVAGGDGDGFSIGGGHMPHMARKNVNMTYVLMDNGIYGLTKGQYSPTSRPEMTAYTTPYGGPENPMNPLLYMLTYGATYVAQAFAGKPKDCAELIKGAMEHEGFAYVNIFSQCPTFNKIDTVDFYRDLVEPIPEDHDTSDLGAAMELARRPGGKAPTGLLYKTSAPTLDQNLAKIRERLGGHVGYDKNKIIALAKP |  | 6.8 | 24.7 | 3.6e+06 | 4400 | 30.3 | 6900
